Common to all, as to experiment: Kinase Profiling Assay
Assay type in all cases: biochemical
What all share (conditions): 100 μM

In one assay the target is T1, CDK5/p25 (h) (Homo sapiens, UniProt Q00535).
T1 construct: purchased Millipore
In outline:
(§1)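 Kinase inhibition by MK2 inhibitory peptides was profiled radiometrically, with substrate phosphorylation from labeled ATP read by scintillation after capture on a charged filter. Values are relative to 100% activity and measured in duplicate.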

The target in the next assay is T2, CDK5/p35 (h) (Homo sapiens, UniProt Q00535).
T2 construct: purchased Millipore
An outline of the steps: as §1

For another assay, the target named is T3, DYRK2 (h) (Homo sapiens, UniProt Q92630).
T3 construct: purchased Millipore
T3 sequence (Q92630 1-601): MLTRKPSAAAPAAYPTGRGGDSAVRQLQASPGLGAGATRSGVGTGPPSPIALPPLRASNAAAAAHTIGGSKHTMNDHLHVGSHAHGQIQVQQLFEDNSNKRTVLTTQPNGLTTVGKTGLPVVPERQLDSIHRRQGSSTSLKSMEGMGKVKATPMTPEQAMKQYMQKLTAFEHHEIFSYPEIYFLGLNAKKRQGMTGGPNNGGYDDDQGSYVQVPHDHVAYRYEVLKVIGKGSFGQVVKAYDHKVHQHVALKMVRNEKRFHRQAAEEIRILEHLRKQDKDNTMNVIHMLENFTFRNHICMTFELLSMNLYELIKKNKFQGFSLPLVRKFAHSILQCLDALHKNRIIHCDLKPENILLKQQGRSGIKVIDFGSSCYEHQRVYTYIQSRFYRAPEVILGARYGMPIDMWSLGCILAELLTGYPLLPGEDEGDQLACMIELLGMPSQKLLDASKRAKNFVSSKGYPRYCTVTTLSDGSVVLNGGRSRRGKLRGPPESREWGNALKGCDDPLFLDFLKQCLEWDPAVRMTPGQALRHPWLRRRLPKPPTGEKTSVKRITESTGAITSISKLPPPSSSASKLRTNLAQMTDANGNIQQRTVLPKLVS
In outline:
as §1

Another assay has as its target FGFR2 (h) (Homo sapiens, UniProt P21802). In outline:
as §1

A further assay concerns the target T4, GSK3α (h) (Homo sapiens, UniProt P49840).
T4 construct: purchased Millipore
In outline: as §1

A further assay concerns the target T5, LKB1 (h) (Homo sapiens, UniProt Q15831).
T5 sequence (Q15831 1-433): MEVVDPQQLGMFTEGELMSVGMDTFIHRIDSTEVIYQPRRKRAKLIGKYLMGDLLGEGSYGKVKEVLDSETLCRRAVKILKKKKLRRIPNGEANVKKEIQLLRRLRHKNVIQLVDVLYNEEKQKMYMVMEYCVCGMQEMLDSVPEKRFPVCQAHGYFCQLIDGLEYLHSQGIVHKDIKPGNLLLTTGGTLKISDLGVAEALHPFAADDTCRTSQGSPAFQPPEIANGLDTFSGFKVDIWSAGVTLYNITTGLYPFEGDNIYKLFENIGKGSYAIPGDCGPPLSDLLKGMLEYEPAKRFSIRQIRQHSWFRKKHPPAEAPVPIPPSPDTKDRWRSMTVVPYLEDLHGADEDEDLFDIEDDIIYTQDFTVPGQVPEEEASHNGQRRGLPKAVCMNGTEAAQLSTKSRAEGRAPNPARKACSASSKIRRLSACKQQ
T5 sequence (Q7RTN6 1-431 partner): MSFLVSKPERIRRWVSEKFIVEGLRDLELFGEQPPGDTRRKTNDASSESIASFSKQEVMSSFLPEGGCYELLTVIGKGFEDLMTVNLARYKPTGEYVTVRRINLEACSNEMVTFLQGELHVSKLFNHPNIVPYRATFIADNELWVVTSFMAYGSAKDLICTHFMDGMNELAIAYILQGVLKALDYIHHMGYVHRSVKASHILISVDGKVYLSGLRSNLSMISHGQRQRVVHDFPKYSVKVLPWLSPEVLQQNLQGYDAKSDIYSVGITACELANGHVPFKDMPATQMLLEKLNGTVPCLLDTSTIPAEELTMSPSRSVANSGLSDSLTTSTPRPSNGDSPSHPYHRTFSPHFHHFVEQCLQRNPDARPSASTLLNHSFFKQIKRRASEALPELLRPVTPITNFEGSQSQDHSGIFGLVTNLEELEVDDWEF
T5 sequence (Q9Y376 1-341 partner): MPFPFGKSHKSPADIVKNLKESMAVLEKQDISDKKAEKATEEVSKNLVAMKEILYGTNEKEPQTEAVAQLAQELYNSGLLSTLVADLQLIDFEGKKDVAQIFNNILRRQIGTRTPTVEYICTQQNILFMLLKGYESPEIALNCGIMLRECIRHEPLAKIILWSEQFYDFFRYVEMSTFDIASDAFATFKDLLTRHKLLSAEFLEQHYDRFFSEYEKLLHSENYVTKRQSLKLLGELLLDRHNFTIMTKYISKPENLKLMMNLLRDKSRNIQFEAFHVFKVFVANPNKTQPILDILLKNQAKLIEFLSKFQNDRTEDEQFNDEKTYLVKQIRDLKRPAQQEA
In outline: as §1

Another assay has as its target T6, ZAP-70 (h) (Homo sapiens, UniProt P43403).
T6 sequence (P43403 1-619): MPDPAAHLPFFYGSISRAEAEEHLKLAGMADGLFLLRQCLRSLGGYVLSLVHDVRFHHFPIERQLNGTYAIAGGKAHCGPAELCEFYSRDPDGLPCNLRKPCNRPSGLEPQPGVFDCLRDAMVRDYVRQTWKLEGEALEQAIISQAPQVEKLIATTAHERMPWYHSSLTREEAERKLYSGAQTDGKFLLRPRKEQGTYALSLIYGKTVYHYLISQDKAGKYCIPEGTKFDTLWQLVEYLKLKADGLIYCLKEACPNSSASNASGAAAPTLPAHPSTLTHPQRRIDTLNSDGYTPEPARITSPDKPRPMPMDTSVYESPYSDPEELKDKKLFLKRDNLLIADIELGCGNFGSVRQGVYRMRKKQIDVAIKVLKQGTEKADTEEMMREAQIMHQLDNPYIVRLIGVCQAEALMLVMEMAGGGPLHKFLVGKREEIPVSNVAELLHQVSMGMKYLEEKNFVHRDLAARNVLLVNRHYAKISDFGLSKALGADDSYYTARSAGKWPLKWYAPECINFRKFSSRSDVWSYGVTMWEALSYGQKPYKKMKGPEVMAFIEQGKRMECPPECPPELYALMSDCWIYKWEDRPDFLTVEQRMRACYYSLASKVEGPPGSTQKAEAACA
An outline of the steps: as §1

For another assay, the target named is T7, p70S6K (h) (Homo sapiens, UniProt P23443).
T7 construct: purchased Millipore
An outline of the steps: as §1

T1 sequence (Q00535 whole entry): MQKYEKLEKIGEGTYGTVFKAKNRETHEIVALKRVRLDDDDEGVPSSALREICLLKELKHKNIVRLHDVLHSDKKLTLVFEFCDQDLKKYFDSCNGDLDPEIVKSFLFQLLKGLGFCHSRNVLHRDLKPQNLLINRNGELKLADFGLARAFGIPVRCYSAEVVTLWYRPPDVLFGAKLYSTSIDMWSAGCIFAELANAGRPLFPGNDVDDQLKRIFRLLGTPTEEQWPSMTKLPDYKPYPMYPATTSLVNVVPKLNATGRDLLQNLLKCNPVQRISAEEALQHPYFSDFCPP
T1 sequence (Q15078 99-307 partner limits assumed): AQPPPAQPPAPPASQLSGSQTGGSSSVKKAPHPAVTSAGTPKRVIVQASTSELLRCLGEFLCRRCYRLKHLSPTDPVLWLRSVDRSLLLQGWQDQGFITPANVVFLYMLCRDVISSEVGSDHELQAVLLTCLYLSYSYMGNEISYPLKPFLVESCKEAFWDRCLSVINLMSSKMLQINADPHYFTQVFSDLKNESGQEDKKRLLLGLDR
T2 sequence (Q00535 whole entry): as the sequence (Q00535 whole entry) above
T2 sequence (Q15078 2-307 partner limits assumed): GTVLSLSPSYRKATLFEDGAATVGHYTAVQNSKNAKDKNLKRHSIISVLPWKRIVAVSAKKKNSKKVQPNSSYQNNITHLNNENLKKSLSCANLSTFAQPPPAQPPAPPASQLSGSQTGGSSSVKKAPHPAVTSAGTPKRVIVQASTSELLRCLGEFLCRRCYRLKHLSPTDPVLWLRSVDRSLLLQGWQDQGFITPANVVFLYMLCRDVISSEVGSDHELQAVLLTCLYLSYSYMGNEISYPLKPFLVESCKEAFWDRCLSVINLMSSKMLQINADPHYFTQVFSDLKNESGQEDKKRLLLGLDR
T7 sequence (P23443 whole entry): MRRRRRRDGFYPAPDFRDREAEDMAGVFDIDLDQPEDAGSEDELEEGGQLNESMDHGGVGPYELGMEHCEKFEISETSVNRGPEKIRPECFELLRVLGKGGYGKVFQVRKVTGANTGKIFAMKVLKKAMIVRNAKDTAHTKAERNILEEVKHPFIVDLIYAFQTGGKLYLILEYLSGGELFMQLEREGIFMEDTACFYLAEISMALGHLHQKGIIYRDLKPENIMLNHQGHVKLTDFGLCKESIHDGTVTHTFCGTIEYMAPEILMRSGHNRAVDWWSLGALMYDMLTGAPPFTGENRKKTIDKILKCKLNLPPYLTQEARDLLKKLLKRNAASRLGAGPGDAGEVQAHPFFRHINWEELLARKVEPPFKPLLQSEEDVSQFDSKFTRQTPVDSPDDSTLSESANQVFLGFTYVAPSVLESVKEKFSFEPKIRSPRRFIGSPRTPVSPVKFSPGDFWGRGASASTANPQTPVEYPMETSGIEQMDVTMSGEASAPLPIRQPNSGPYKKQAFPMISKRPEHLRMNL
T4 sequence (P49840 whole entry): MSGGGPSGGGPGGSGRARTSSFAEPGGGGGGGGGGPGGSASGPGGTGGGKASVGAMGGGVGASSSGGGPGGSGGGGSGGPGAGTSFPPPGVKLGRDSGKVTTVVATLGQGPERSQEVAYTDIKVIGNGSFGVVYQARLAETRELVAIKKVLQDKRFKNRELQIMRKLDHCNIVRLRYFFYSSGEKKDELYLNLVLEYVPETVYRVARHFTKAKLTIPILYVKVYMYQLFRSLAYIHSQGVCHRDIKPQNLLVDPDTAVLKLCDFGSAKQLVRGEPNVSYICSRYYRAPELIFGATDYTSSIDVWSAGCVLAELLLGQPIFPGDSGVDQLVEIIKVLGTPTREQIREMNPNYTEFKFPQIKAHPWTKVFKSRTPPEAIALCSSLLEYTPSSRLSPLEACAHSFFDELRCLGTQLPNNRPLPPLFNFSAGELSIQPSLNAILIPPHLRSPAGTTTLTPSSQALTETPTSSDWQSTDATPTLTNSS

As to FAKLAARLYRKALARQLGVAA [MMI-0300], the “% activity” value worked out at 89% with CDK5/p25 (h); 79% in the assay with CDK5/p35 (h); 155% with DYRK2 (h); 14% with FGFR2 (h); 157% with GSK3α (h); 101% with LKB1 (h). Also, the “% activity” value in the assay with ZAP-70 (h) is listed as 75%; with p70S6K (h), 35%.

Consider KAFAKLAARLYRKALARQLGVAA [MMI-0400], for which the “% activity” value with CDK5/p25 (h) is given as 92%; with CDK5/p35 (h) it was 76%; with DYRK2 (h) it was 195%; in the assay with FGFR2 (h), 18%; in the assay with GSK3α (h), 164%; in the assay with LKB1 (h) it was 89%. Also, the “% activity” value with ZAP-70 (h) and with p70S6K (h) was 33% in each case.

Turning to “YARAAARQARAKALNRQLGVA (Mammalian) [MMI-0200]”, the “% activity” value with CDK5/p25 (h) is 97%; with CDK5/p35 (h), 92%; in the assay with DYRK2 (h), 142%; with FGFR2 (h), 73%; in the assay with LKB1 (h), 99%; in the assay with ZAP-70 (h), 58%. Besides, the “% activity” value with p70S6K (h) is given as 84%.

“HRRIKAWLKKIKALARQLGVAA (Mammalian) [MMI-0500]”: the “% activity” value with CDK5/p25 (h) stood at 66%; with CDK5/p35 (h) it was 59%; with DYRK2 (h), 127%; with FGFR2 (h), 12%; in the assay with GSK3α (h), 175%; in the assay with LKB1 (h), 51%. The “% activity” value with ZAP-70 (h) is given as 1%; in the assay with p70S6K (h) it was 3%.

Source of the values: US10500249B2, “Compositions and methods for preventing or treating diseases, conditions, or processes characterized by aberrant fibroblast proliferation and extracellular matrix deposition” (MOERAE MATRIX, INC., priority 2014, dated 2019).
